“Also recorded” adds a separate entry of the source.
System: 3D human trabecular meshwork (HTM) cells co-cultured with human Schlemms' canal (HSC) cells
Assay: Outflow facility in bioengineered 3D HTM/HSC ex vivo human eye tissue model, ANGPTL7 or dexamethasone
Assay type: cell-based
Settings: 3D-HTM donors; 500 nM Dexamethasone or 50 ng/mL ANGPTL7 vs vehicle (DMSO)
Protocol: Experiments were conducted to determine the effects of ANGPTL7 on outflow facility in a bioengineered ex vivo human eye tissue model. Glauconix developed a proprietary technology allowing multi-layer growth of bioengineered 3D human trabecular meshwork (HTM) cells co-cultured with human Schlemms' canal (HSC) cells, thereby mimicking the architecture of the tissues responsible for pressure build-up in the human eye (FIG. 3A). This allows endpoint analyses relevant to IOP-modulation. This scaffolding of cells is used to compare treatment effects of vehicle (DMSO), dexamethasone (a steroid known to elevate IOP), and human ANGPTL7 protein on outflow facility.
Briefly, HTM cells were thawed and allowed to grow for about 7 days (media changes every 2 days). The HTM cells were seeded onto scaffolds and HSC cells were thawed on the same day; the HTM cells were allowed to grow for 7 days on the scaffolds with media changes every 2 days. HSCs were co-cultured on the back side of the HTM scaffolds and grown for 10-12 days with media changes every 2 days. […]
Samples were analyzed using One-way ANOVA (GraphPad Prism Software, Inc., La Jolla, CA), *P<0.05, **P<0.0.01, ***P<0.001 N=4 per treatment group. […] […]

B1: ANGPTL7: human ANGPTL7 protein (angiopoietin-related protein 7), made by Biortus, used as treatment at 50 ng/mL (protein)
chain: QKLSKHKTPAQPQLKAANCCEEVKELKAQVANLSSLLSELNKKQERDWVSVVMQVMELESNSKRMESRLTDAESKYSEMNNQIDIMQLQAAQTVTQTSADAIYDCSSLYQKNYRISGVYKLPPDDFLGSPELEVFCDMETSGGGWTIIQRRKSGLVSFYRDWKQYKQGFGSIRGDFWLGNEHIHRLSRQPTRLRVEMEDWEGNLRYAEYSHFVLGNELNSYRLFLGNYTGNVGNDALQYHNNTAFSTKDKDNDNCLDKCAQLRKGGYWYNCCTDSNLNGVYYRLGEHNKHLDGITWYGWHGSTYSLKRVEMKIRPEDFKP
Question: B1 was tested. Which outflow facility did it give?
Answer: The outflow facility was “reduced outflow facility; also recorded: significantly decreased outflow facility”.

Source: patent publication US20250296996A1, “ANGIOPOIETIN-RELATED PROTEIN 7-SPECIFIC ANTIBODIES AND USES THEREOF” (Broadwing Bio, Inc., priority 2022, published 2025)
